The results in this text go back to article PMC5217673, “The Shigella Virulence Factor IcsA Relieves N-WASP Autoinhibition by Displacing the Verprolin Homology/Cofilin/Acidic (VCA) Domain*” (The Journal of Biological Chemistry, 2016).

No end group written: not given here.

First the molecules themselves.
B2: GST-N-WASP WH1 + GBD (residues 30–274) (domain or fragment)
chain: LFTFLGKKCVTMSSAVVQLYAADRNCMWSKKCSGVACLVKDNPQRSYFLRIFDIKDGKLLWEQELYNNFVYNSPRGYFHTFAGDTCQVALNFANEEEAKKFRKAVTDLLGRRQRKSEKRRDPPNGPNLPMATVDIKNPEITTNRFYGPQVNNISHTKEKKKGKAKKKRLTKADIGTPSNFQHIGHVGWDPNTGFDLNNLDPELKNLFDMCGISEAQLKDRETSKVIYDFIEKTGGVEAVKNELRR
notes: N-WASP from the WH1 domain to the end of the GBD, residues 30-274; also called GST-WH1 + GBD; extended N-WASP construct; source: E. coli Rosetta(DE3), purified (glutathione-Sepharose, SEC)
B3: GST-N-WASP extended GBD (residues 156–274) (domain or fragment)
chain: NLPMATVDIKNPEITTNRFYGPQVNNISHTKEKKKGKAKKKRLTKADIGTPSNFQHIGHVGWDPNTGFDLNNLDPELKNLFDMCGISEAQLKDRETSKVIYDFIEKTGGVEAVKNELRR
notes: Cloned in pGEX-6P-1 or pGEX-4T-2; also called GST-GBD; GBD alone; source: E. coli Rosetta(DE3), purified (glutathione-Sepharose, SEC)

Settings in all cases: both partners purified
The target of assay [1] is B2. Kind of assay: fluorescence polarisation; direct binding: fluorescein-VCA peptide 2 nM, GST-GBD or GST-WH1 + GBD 0.1–200 μM, 25 °C, TBS, 1 mM DTT; one-site equilibrium model. Background: In fluorescence polarisation assays a small probe gives low polarisation when free and higher when bound to something large.
Assay [2] concerns the target B3. Described as above.
Assay [3] addresses T1, IcsA passenger domain, IcsA(53–758), FLAG-tagged (Shigella flexneri, UniProt Q7BCK4 53-758).
T1 construct: IcsA (VirG) of Shigella flexneri, gene amplified from the virulence plasmid pWR100; Expressed as full-length IcsA from pETDuet-2 with IcsP; monomer by SEC-MALS; also called FLAG-IcsA; VirG; source: E. coli C43 (DE3), full-length IcsA co-expressed with IcsP; secreted passenger domain purified from medium (anti-FLAG M2 beads, SEC); not shown: FLAG, N-terminal, kept
T1 sequence: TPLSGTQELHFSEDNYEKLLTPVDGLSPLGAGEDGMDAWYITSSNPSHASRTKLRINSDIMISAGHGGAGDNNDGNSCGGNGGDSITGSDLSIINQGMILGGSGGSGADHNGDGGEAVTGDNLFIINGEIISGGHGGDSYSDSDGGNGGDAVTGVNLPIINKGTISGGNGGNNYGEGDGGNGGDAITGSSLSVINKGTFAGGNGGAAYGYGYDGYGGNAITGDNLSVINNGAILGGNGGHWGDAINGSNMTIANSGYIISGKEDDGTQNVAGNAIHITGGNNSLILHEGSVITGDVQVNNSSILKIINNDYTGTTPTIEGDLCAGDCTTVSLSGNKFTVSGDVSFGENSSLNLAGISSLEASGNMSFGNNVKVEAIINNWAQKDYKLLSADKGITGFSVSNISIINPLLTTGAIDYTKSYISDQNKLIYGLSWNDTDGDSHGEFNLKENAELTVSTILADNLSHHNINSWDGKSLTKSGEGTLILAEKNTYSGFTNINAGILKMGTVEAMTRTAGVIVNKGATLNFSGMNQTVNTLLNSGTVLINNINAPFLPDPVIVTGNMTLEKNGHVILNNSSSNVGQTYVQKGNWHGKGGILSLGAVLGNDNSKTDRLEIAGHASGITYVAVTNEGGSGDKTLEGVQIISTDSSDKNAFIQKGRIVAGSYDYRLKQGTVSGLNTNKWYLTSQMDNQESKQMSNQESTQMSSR
Kind of assay: fluorescence polarisation; competition: preformed complex of GST-GBD or GST-WH1 + GBD (5 μM) and fluorescein-VCA peptide (0.1 nM), IcsA added at 0.01–16 μM, 25 °C; one-site equilibrium model.

B1: Fluorescein-labelled N-WASP VCA peptide (residues 462–481) (peptide)
peptide: fluorescein-APTSGIVGALMEVMQKRSKA
notes: also called labeled peptide; source: synthetic peptide (Genscript)
By Kd is commonly meant a measure of binding affinity in units of concentration. On to B1, for which the Kd in assay [1] is 52.4 µM; in assay [2] it was 28.8 µM. In the case of B2, the dissociation constant Kd in assay [3] was 0.05 µM.

For B3, the Kd in assay [3] worked out at 0.32 µM.
